The series can be described thus: yeast display, Sf9 membrane polyspecificity reagent, FACS + sequencing; frameworks hold sequencing errors. The method, boiled down: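 After 36–48 hours of galactose induction, yeast (Saccharomyces cerevisiae BJ5465) displaying a synthetic nanobody library were stained at 4 °C for 1 hour with 10% biotinylated, detergent-solubilized Sf9 membrane reagent. Streptavidin microbeads enriched the stained cells before FACS sorting into low and high (top ~1%) gates on anti-HA and streptavidin fluorescence. Each clone's polyreactivity label reflects its gate of origin.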
Take “QVQLVESGGGLVQAGGSLRLSCAASGNIFPSYAMGWYRQAPGKERELVASINFSDGYTSYADSVKGRFTISRDNAKNTVYLQMNSLKPEDTAVYNCNADVWYYYYGFKGEEDYWGQGTQVTVSS”: the “polyreactivity (PSR sort gate)” value is recorded as “low polyreactivity”. Then “QDQLVESGVGLVQAGGSLRLSCAASGYIFLLYDMGWYRQAPGKEREMVATITSGGGTYYADSVKGRVTISRDNAKNTVYLQMNSLIPEDTAVYYCNADLYRWTGRSYWDKHGSWGQGTQVTVSS”, with “low polyreactivity”; and “QVQLVESGGGLVQAGGSLRLSCAASGSIFGWYVMGWYRQAPGKERELVAAISSVGSTYYADSVKGRFTISRDNAKNTVYLQMNSLKPEDTAVYYCAKLRYPYLFWDDSEYWGQGTQVTVSS”, with “low polyreactivity”. Then “QVQLVESGGGLVQAGGSLRLSCAASGRIFSLNAMGWYRQAPGKERELVAAISKRGGSTYYADSVKGRFTISRDNAKNTVYLQMNSLKPEDTAVYYCNKLGSLSGRYDYWGQGTQVTVSS”, with “high polyreactivity”; and “QVQLVESGGGLVQAGGSLRLSCAASGLTFRYYSMGWYRQAPGKERELVAAISRRSGSTYYADSVKGRFTISGDNAKNTVYLQMNSLKPEDTAVYYCNADSTITGNLKRYDYWGQGTQVTVSS”, with “high polyreactivity”. With “QVQLVESGGGLVQAGGSLRLSCAASGSIFGDNAMAWYRQAPGKERELVARISSGGNTYYADSVKGRFTISRDNAKNTVYLQMNSLKPEDTAVYYCAAAIKVRYKKFPYYYWGQGTQVTVSS”, the “polyreactivity (PSR sort gate)” value is given as “high polyreactivity”. Then “QVQLVESGGGLVQAGGSLRLSCAASGNILASNAMGWYRQAPGKERELVAAITISGDTTYYADSVKGRFTISRDNAKNTVYLQMNSLKPEDTAVYYCNAVSFIVNGGYDGDYWGQGTQVTVSS”, with “low polyreactivity”; and “QVQLVESGVGLVQAGGSLRLSCAASGRTFDLYAMGWYRQAPGKERELVAAITKGGGSTYYADSVKGRFTISRDNAKNTVYLQMNSLKPEDTAVYYCAARKYKRIYRISSGIGYYWGQGTQVTVSS”, with “high polyreactivity”.

In the case of “QVQLVESGGGLVQAGGSLRLSCAASGAIFQPYGMGGYSQAPGKERELVAAISRGGTTYYADSVTGRFTISRANAKNTDYLQMNSLKPEETAVYYCAVKGYRYGTRYDYRGQGTQVTVSS”, the “polyreactivity (PSR sort gate)” value was “high polyreactivity”.

With “QVQLVESGGGLVQAGGSLRLSSADSGSIFVYNDMGWYRQAPGKERELVARIDWSGDRTYADSVKGRFTISRDNAKNTVYLQMNSLKPEDTAVYYCNADEWRWDEIIPYAVDYCGQGTQVTVSS”, the “polyreactivity (PSR sort gate)” value was “low polyreactivity”. For “QVQLVESGGGLVQAGGSLRLSCAASGRIFGTYAMGWYRQAPGKERELVAAITSSGGRTYYADSVKGRFTISRDNAKNTVYLQMNRLKPEDTAVYYCAAYPWYRMWGQGTQVTVSS”, the “polyreactivity (PSR sort gate)” value is listed as “high polyreactivity”. In the case of “QVQLVESGGGLVQAGGSLRLSCAASGRIFRYNAMGWYRQAPGKEREFVAAISWSGDRTYYADSVKGRFTISRDNAKNTGYLQMNSLKTEDTAVYYCADVPATSYPRRYVYAYYYWGQGTQVTVSS” it was “high polyreactivity”; in that of “QVQLVESGGGLVQAGGSLRLSCAASGSILFNNAMGWYRQAPGKEWELVAAMGANGGNTYYADSVKGRFTISCDNATNTVYLQMTSLKPEDTAVYYCSADKTLYGGGAWTRWFHYTYGYWGQGTQVTVSS”, “high polyreactivity”.

For “QVQLVESGGGLVQAGGSLRLSCAASGSIFFSYAMGWYRPAPGKERELVAAISSGGSTYYADSVKGRFTISRDNAKNTVYLPMNSLKPEDTAVFYCAARGYRLVPVDFYYWGQGTQVTVSS”, the “polyreactivity (PSR sort gate)” value is reported as “low polyreactivity”. For the sequence “QVHLVESGGGLVQAGGSLRLSCAASGSIFSLYAMGWYRQAPGKERELVAAITRSGAGTYYADSVKGRFTISRDNAKNTVYLQLNSLKPEDTAVYYCANRTKTPTGYVWGGYDYWGQGTQVTVSS”, the “polyreactivity (PSR sort gate)” value was “high polyreactivity”. Then “QVQLVESGGGLVQAGGSLRLSSAASGFTFEENAMGWYRQAPGKERELVAAINWSGGNTYYADSVKGRFTISRDNAKNTVYLQMNSLKPEDTAVYYCAAVSTRYYYSVGPYYGYDYWVQGTQVTVSS”, with “high polyreactivity”. Then “QVQLVESGGGLVQAGGSLRLSCAASGFTFNRYAMGWYRQAPGKERELVAAISWSGTSTYYADSVKGRFTISRDNAKNTVYLQMNSLKPEDPAVYYCAAYPALTGGLPKSRGYYWGQGTQVTVSS”, with “high polyreactivity”; and “QVQLVESGGGLVQAGGSLRLSCAASGRIFTTYAMGWYRPAPGKERELVAANTSGGRTNYADSVKGRFTISRDNAKNTVYLQMNSLKPEDTAVYYCAADGGVRRLTGLLYSFDYWGQGTQVTVSS”, with “low polyreactivity”; and “QVQLVESGGGLVQAGGSLRLSCPASGITFKGYTMGWYRQAPGKERELVATISRGGRTYADSVKGRFTISRDNAKKTFYLQMNSLKPEDTSVYYCAADKYWAQNDYWGQGTQVTVSS”, with “low polyreactivity”. Then “QVQLQESGGGLVQVGGSLRLSCAASGTIFIYGFLGWNRQAQGKELELVASINLGGITNYADSVKGRFTISRDNAKNTLYLQMISLKTEDTAVYYCAAYVVTGQNYGYWGQGTQVTVSS”, with “low polyreactivity”; and “QVQLVESGGGLVQAGGSLRLSCAASGSTFTVNAMGWYRQAPGKERELVAAIRWSGDSTYYADSVKGRFTISRDNAKNTVYLQMNSLKPEDTAVYYCARDLYWGSYNYWGQGTQVTVSS”, with “low polyreactivity”. For “QLQLVESGGGLVQAGGSLRLSCAASGSIFHGNVMGRYRHAPGKEMELVAAISSSGGSTYYADSVKGRFTISRDIAKNTVYLQMNSLKPEDNAVYYCAARNRYWGQGTQVTVSS”, the “polyreactivity (PSR sort gate)” value is “high polyreactivity”. With “QVQLVESGGGLVQAGGSLRLSCAASGRIFGAYALGWSRQAPGKEMELVADIRSTGSTYYADSVKGRFTISRDNAKNTVYLQMNSLKPEDTAVYYCAAKYWKWYHYGFGYWGQGTQVTVSS”, the “polyreactivity (PSR sort gate)” value is “high polyreactivity”. In the case of “QVQLVESGGGLVQAGGSLRLSCAASGSTFKYNAMGWYRQAPGKERELVASISRSGGSTYYADSVKGRFTISRDNAKNTVYLQMNSLKPEDTAVYYCNVRRFVHYEYWGQGTQVTVSS” it was “high polyreactivity”; in that of “QVQLVESGGGLVQAGGSLRLSCAASGRIFHYNAMGWYRQAPGKERELVAAISTGGSTNYADSVKGRFTISRDNAKNTVYLQMNSLKPEDTAVYYCNADLYVDPWTYFGYDYWGQGTQVTVSS”, “low polyreactivity”.

With “QVQLVESGGGLVQAGGSLRLSCAASGNIFRGYTMGWSRQAPGKEREWVATISWNGVSTFYADSVKGRFTISRDNAKNTVYVQMNSLKPEDTAVYYCAAYYPSHDYSGFWSDTYEYWGQGTQVTVSS”, the “polyreactivity (PSR sort gate)” value is on record as “low polyreactivity”. In the case of “QVQLVESGGGLVQAGGSLRLSCAASGSIFFSYAMGWYRQAPGKERELVATITTSGGRTRYADSVKGRFTISRDNAKNTVYLQMNSLKPEDTAVYYCAVRGHFFTYGYWGQGTQVTVSS” it was “high polyreactivity”; in that of “QVQLVESGGGLVQAGGSLRLSCAASGSTFSTYAMGWYRQAPGKERELVATISKRGGSTYYADSVKGRFTISRDNAKNTVYLQMNSLKAEDTAVYYCDARWQWLNGYYYWGQGTQVSVSS”, “high polyreactivity”; in that of “QVQLVESGGGLVQAGGSLRLSCAASGRTFGVYAMGCYRQAPGKERELVAGIRWRGGSTYYADSVKGRFTNSRDNAKNTVYLQMNSLKPEDTAVYYCAADVYLVKYDYWGQGTQVTVSS”, “low polyreactivity”.

In the case of “QVQLVESGGGLVQAGGSLRLSCAASGFTFSKYAMGWYRQAPGKERELVAGITWSGGRTYYADSVKGRFTISRDNAKNTVYLQLNSLIPDDSAVYYCAADPVWGRYIKYDYWGQGTQVTVSS”, the “polyreactivity (PSR sort gate)” value is listed as “high polyreactivity”.

The values are drawn from the nanobody polyreactivity screen of Harvey et al. (2022).
